Two molecules from patent JP2005185281A can be followed below.

In assay [1] the target is SKOv-3膜タンパク (可溶性分画、ダイナビーズ結合). Nature of the assay: phage recovery: Dynabeads with 10 ug SKOv-3 membrane protein + 1x10^8 cfu phage.
Assay [2] deals with SKOv-3細胞 (卵巣癌細胞株) の細胞表面抗原. The assay is described as follows: phage recovery: 1x10^7 phage + 1x10^7 SKOv-3 cells, 3 spins through solution (1) 1%BSA-MEM; colonies counted.
For assay [3], the target named is SKOv-3細胞 (卵巣癌細胞株) の細胞表面抗原. The assay is described as follows: phage recovery: 1x10^7 phage + 1x10^7 SKOv-3 cells, 4C 4 h, 3 spins through solution (1) 1%BSA-MEM; colonies counted.
Assay [4] addresses SKOv-3細胞 (卵巣癌細胞株) の細胞表面抗原. Nature of the assay: phage recovery: 1x10^7 phage + 1x10^7 SKOv-3 cells, 3 spins through solution (2) Ficoll-Paque diluted 4-fold in PBS; colonies counted.
For assay [5], the target named is SKOv-3細胞 (卵巣癌細胞株) の細胞表面抗原. The assay is described as follows: phage recovery: 1x10^7 phage + 1x10^7 SKOv-3 cells, 4C 4 h, 3 spins through solution (2) Diphenyl Ether:1.1.1-Trichloroethane:Hexane=44:27:33; colonies counted.
Assay [6] has as its target SKOv-3細胞 (卵巣癌細胞株) の細胞表面抗原. The assay is described as follows: phage recovery: 1x10^7 phage + 1x10^7 SKOv-3 cells, 4C 4 h, 3 spins through solution (3) Isopropyl Ether:1.1.1-Trichloroethane:Hexane=20:50:30; colonies counted.
Assay [7] deals with SKOv-3膜タンパク (可溶性分画、ダイナビーズ結合). The assay is described as follows: phage recovery on SKOv-3 membrane protein beads with 400 ug free HeLa membrane protein present.
The target of assay [8] is SKOv-3膜タンパク (可溶性分画、ダイナビーズ結合). Nature of the assay: phage recovery on SKOv-3 membrane protein beads with 400 ug free SKOv-3 membrane protein as competitor.
In assay [9] the target is SKOv-3膜タンパク (可溶性分画、ダイナビーズ結合). The assay is described as follows: phage recovery on SKOv-3 membrane protein beads with 400 ug free SKOv-3 membrane protein against recovery without it.

Consider “pAALSC3-D1.3HL 抗HEL(hen egg lysozyme)抗体ファージ (scFv)”, for which, in assay [1], the 回収されたファージ (cfu) was found to be 11 cfu. Besides, the 回収されたファージの数 in [2] was 1040 ファージ数; in assay [3], 308 ファージ数; in [4], 1040 ファージ数; in [5], 176 ファージ数; in assay [6] it was 198 ファージ数.

B1: クローン126 (015-126 pIII:抗HER2抗体、ファージpIII融合scFv型抗体) (scFv, part only; not given: CL and pIII fusion parts, part only)
scFv, part: QVQLVQSGAEVKKPGESLKISCKGSGYSFTSYWIGWVRQMPGKGLEWMGIIYPGDSDTRYSPSFQGQVTISADKSISTAYLQWSSLKASDTAMYYCARLTLSYSSSWFDYWGQGTLVTVSSQTVVTQEPSFSVSPGGTVTLTCGLSSGSVSTSYYPSWYQQTPGQAPRTLIYSTNTRSSGVPDRFSGSILGNKAALTITGAQADDESDYYCVLYMGSGISVFGGGTKLTVL
With B1, the 回収されたファージ (cfu) in assay [1] came out at 87000 cfu; in assay [7] it was 50000 cfu; in assay [8], 2200 cfu. The 回収の変化 (遊離SKOv-3膜タンパク共存 / 非共存) in [9] turned out to be 0.025 fold.
